Test results reported in paper PMC6372009.

Key:
mini-procollagen III [1] = assay: SPR; Biacore T200; mini-procollagen III immobilised (240 RU), C1C2 wild-type or mutants injected, 50 μL/min, 25°C, 10 mM Na-Hepes pH 7.4, 0.15 M NaCl, 5 mM CaCl2, 0.05 % P20; 1:1 binding model
mini-procollagen III [2] = assay: SPR; settings: immobilized mini-procollagen III (240 RU), flow rate 50 μL/min, 25°C; for Kd: 1:1 binding model, parent: est. 1.4 nM, read off a plot

Row | Substance | fold increase in dissociation constant against wild-type C1C2 (mini-procollagen III [1]) [fold] | Kd (mini-procollagen III [2]) [nM] | response (mini-procollagen III [2]; 48 nM C1C2, response at end of association (about 100 s), parent: est. 29, read off a …) [RU]
1 | C1C2 fragment of PCPE-1, Arg91Ala mutant (pCEP-Pu construct) (from UniProt Q15113 1-252) (domain or fragment) | 50 |  | 
2 | C1C2 fragment of PCPE-1, wild-type control, pCEP-Pu construct (N-terminal APLA, C-terminal …) (from UniProt Q15113) R55A; R91A; L234E |  | 120 | 
3 | C1C2 fragment of PCPE-1, wild-type control, pCEP-Pu construct (N-terminal APLA, C-terminal …) (from UniProt Q15113) R91A |  | 61 | 

More lines, in order of falling Kd (mini-procollagen III [2]), values ahead:

Row | fold increase in dissociation constant against wild-type C1C2 (mini-procollagen III [1]) [fold] | Kd (mini-procollagen III [2]) [nM] | response (mini-procollagen III [2]; 48 nM C1C2, response at end of association (about 100 s), parent: est. 29, read off a …) [RU] | Substance
4 |  | 54 |  | C1C2 fragment of PCPE-1, wild-type control, pCEP-Pu construct (N-terminal APLA, C-terminal …) (from UniProt Q15113) R55A; L234E
5 |  | 20 |  | C1C2 fragment of PCPE-1, wild-type control, pCEP-Pu construct (N-terminal APLA, C-terminal …) (from UniProt Q15113) L234E
6 |  | 2.6 | 26 | C1C2 fragment of PCPE-1, wild-type control, pCEP-Pu construct (N-terminal APLA, C-terminal …) (from UniProt Q15113) R55A
